Substitutions are numbered along the chain they refer to. Names and notes keep the numbering of the source.

The target of test [1] is T1, Bacillus stearothermophilus DnaB helicase (Bacillus stearothermophilus, UniProt Q9X4C9 1-454).
T1 sequence: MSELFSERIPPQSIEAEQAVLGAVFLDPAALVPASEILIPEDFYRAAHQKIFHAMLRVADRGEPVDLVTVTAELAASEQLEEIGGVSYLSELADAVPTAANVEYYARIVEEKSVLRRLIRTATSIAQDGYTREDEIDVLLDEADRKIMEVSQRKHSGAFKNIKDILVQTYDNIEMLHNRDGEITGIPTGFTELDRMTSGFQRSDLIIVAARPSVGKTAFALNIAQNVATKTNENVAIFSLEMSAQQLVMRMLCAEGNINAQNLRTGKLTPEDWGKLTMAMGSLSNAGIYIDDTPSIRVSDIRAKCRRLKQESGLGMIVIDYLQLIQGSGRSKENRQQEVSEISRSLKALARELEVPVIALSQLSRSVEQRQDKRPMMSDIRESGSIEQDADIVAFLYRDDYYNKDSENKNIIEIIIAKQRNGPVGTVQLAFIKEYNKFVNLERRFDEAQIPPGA
Put plainly: SPR.

For test [2], the target named is T1, Bacillus stearothermophilus DnaB …. Briefly: SEC.

B1: Bacillus subtilis DnaI (wild type) (natural protein)
chain: MEPIGRSLQGVTGRPDFQKRLEQMKEKVMKDQDVQAFLKENEEVIDQKMIEKSLNKLYEYIEQSKNCSYCSEDENCNNLLEGYHPKLVVNGRSIDIEYYECPVKRKLDQQKKQQSLMKSMYIQQDLLGATFQQVDISDPSRLAMFQHVTDFLKSYNETGKGKGLYLYGKFGVGKTFMLAAIANELAEKEYSSMIVYVPEFVRELKNSLQDQTLEEKLNMVKTTPVLMLDDIGAESMTSWVRDEVIGTVLQHRMSQQLPTFFSSNFSPDELKHHFTYSQRGEKEEVKAARLMERILYLAAPIRLDGENRRHP
Take B1: the “stoichiometry N” value in test [1] was 1 DnaI per stearoDnaB subunit.

B2: B. subtilis DnaI C101A mutant (natural protein)
chain: B1 chain with C101A
Consider B2, for which the binding result in test [2] is given as “binds”.

(Values after article PMC1636449 (Nucleic Acids Research, 2006).)
